Source: patent US20220010021A1 (Sanofi, published 2022)

Columns and labels:
[1] = target: human FGFR1c/KLB cell surface receptor complex on iLite FGF21 reporter cells (human, UniProt P11362 22-822; Q86Z14 1-1044); assay: cell-based or functional assay; on Mean E max (%): reference of the scale not given here
human beta-Klotho (KLB) = target: T1, human beta-Klotho (KLB) (human, UniProt Q86Z14 53-997); assay: BLI off-rate screen (Octet), Ab captured via Fc;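 further: antibody supernatants applied at 25 µg/mL, dissociation monitored over 1800 s in D-PBS with 0.1% BSA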
T1 construct: also called human KLB
T1 sequence (looked up): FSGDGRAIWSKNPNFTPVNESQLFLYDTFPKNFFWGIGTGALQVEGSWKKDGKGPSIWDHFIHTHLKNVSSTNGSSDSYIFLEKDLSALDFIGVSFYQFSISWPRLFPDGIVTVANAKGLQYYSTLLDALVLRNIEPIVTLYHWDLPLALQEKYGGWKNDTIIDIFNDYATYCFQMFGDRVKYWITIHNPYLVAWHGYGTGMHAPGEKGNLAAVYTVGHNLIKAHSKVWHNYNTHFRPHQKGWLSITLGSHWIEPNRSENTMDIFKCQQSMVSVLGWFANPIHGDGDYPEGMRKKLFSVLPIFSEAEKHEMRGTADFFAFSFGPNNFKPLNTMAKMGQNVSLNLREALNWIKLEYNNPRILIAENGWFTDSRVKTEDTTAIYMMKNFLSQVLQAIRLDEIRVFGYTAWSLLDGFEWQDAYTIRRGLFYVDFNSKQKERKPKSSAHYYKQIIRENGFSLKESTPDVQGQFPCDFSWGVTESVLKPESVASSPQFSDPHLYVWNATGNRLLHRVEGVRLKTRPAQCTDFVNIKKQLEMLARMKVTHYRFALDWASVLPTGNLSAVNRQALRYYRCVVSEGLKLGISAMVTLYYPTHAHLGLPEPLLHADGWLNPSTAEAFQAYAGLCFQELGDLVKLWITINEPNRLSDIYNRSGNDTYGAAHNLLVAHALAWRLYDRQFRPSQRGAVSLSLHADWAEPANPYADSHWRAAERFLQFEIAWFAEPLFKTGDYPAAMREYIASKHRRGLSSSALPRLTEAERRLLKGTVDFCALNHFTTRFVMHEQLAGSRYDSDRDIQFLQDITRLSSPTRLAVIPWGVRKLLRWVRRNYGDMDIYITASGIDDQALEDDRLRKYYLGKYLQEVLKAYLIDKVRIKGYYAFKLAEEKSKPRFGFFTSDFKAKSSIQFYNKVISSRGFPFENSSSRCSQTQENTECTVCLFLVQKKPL

Sequence of human FGFR1c/KLB cell surface receptor complex on iLite FGF21 reporter cells (P11362 22-822, chain 1 of 2): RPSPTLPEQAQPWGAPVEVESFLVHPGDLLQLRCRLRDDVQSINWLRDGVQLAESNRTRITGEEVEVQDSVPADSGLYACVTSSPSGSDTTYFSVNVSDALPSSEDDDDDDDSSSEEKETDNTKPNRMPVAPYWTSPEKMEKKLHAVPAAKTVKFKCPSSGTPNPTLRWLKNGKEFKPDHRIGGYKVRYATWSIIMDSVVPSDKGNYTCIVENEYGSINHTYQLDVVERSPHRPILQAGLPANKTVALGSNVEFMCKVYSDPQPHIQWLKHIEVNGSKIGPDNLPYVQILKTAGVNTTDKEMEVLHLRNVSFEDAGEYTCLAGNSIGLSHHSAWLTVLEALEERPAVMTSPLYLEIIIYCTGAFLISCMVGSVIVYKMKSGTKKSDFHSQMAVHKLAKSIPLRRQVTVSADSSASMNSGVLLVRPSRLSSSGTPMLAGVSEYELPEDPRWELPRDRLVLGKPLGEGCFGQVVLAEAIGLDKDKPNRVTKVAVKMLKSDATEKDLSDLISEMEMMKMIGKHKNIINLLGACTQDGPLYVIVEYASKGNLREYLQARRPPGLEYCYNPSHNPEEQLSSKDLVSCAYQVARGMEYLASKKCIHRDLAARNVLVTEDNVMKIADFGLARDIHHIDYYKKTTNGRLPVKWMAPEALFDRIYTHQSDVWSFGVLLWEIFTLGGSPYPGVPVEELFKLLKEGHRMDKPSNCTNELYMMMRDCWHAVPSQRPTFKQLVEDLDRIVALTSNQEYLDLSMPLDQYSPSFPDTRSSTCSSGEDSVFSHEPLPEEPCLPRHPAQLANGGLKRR
Sequence of human FGFR1c/KLB cell surface receptor complex on iLite FGF21 reporter cells (Q86Z14 whole entry, chain 2 of 2): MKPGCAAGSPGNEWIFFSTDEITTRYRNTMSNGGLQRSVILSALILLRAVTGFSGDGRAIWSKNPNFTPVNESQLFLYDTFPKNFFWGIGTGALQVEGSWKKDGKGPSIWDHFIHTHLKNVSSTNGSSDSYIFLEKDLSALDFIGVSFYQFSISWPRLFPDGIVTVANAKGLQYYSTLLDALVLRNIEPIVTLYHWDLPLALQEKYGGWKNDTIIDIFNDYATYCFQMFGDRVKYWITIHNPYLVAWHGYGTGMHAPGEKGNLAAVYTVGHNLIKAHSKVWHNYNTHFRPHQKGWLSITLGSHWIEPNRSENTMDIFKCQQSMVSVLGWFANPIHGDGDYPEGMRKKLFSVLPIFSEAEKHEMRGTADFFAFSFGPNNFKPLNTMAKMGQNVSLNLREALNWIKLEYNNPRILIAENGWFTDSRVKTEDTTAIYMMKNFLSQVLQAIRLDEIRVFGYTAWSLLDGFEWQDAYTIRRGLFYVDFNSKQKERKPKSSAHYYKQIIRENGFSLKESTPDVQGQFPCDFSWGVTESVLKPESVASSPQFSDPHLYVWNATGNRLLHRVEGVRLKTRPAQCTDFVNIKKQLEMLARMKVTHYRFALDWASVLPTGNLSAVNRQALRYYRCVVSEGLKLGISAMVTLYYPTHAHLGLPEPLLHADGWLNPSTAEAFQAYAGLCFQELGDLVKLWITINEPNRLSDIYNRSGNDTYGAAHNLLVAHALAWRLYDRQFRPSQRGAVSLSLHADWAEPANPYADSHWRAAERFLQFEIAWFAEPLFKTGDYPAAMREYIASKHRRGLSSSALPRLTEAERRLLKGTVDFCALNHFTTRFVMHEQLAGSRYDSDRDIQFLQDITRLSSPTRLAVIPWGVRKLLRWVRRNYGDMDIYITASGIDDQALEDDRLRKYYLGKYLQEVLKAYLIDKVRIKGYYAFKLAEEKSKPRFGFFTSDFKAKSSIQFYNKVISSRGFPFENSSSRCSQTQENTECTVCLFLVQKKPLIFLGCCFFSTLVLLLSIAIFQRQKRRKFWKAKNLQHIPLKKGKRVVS

B1: 16H7 variant, light chain N26G (antibody, human IgG4 S228P, lambda, V domains shown)
VH: not shown
VL: SYVLTQPPSVSVAPGQTARITCGGNGIGSESVHWYQQKPGQAPVLVVYDDSDRPSGIPERFSGSNSGNTATLTISRVEAGDEADYYCQVWDGNSDHVVFGGGTKLTVLG
notes: IgG4 backbone
[1]
  Mean E max (%): 94%
  Mean EC50: 0.097 nM
Human beta-Klotho (KLB)
  koff: 3.7e-05 s⁻¹

B2: 16H7 variant, light chain N26P (antibody, human IgG4 S228P, lambda, V domains shown)
VH: not shown
VL: SYVLTQPPSVSVAPGQTARITCGGNPIGSESVHWYQQKPGQAPVLVVYDDSDRPSGIPERFSGSNSGNTATLTISRVEAGDEADYYCQVWDGNSDHVVFGGGTKLTVLG
notes: IgG4 backbone
[1]
  Mean E max (%): 100%
  Mean EC50: 0.099 nM
Human beta-Klotho (KLB)
  koff: 5.1e-05 s⁻¹

B3: 16H7 variant, light chain N26V (antibody, human IgG4 S228P, lambda, V domains shown)
VH: not shown
VL: SYVLTQPPSVSVAPGQTARITCGGNVIGSESVHWYQQKPGQAPVLVVYDDSDRPSGIPERFSGSNSGNTATLTISRVEAGDEADYYCQVWDGNSDHVVFGGGTKLTVLG
notes: IgG4 backbone
[1]
  Mean E max (%): 106%
  Mean EC50: 0.118 nM
Human beta-Klotho (KLB)
  koff: 3.5e-05 s⁻¹

B4: 16H7 variant, light chain N26Q (antibody, IgG4, V domains shown)
VH: not shown
VL: SYVLTQPPSVSVAPGQTARITCGGNQIGSESVHWYQQKPGQAPVLVVYDDSDRPSGIPERFSGSNSGNTATLTISRVEAGDEADYYCQVWDGNSDHVVFGGGTKLTVLG
notes: IgG4 backbone; copies: 2 + 2
[1]
  Mean E max (%): 109%
  Mean EC50: 0.119 nM
Human beta-Klotho (KLB)
  koff: 1e-07 s⁻¹

B5: 16H7 variant, light chain N26K (antibody, human IgG4 S228P, lambda, V domains shown)
VH: not shown
VL: SYVLTQPPSVSVAPGQTARITCGGNKIGSESVHWYQQKPGQAPVLVVYDDSDRPSGIPERFSGSNSGNTATLTISRVEAGDEADYYCQVWDGNSDHVVFGGGTKLTVLG
notes: IgG4 backbone
[1]
  Mean E max (%): 104%
  Mean EC50: 0.143 nM
Human beta-Klotho (KLB)
  koff: 1e-07 s⁻¹

B6: 16H7 variant, light chain N26S (antibody, IgG4, V domains shown)
VH: not shown
VL: SYVLTQPPSVSVAPGQTARITCGGNSIGSESVHWYQQKPGQAPVLVVYDDSDRPSGIPERFSGSNSGNTATLTISRVEAGDEADYYCQVWDGNSDHVVFGGGTKLTVLG
notes: IgG4 backbone; copies: 2 + 2
[1]
  Mean E max (%): 101%
  Mean EC50: 0.118 nM
Human beta-Klotho (KLB)
  koff: 1e-07 s⁻¹

B7: 16H7 variant, light chain N26L (antibody, human IgG4 S228P, lambda, V domains shown)
VH: not shown
VL: SYVLTQPPSVSVAPGQTARITCGGNLIGSESVHWYQQKPGQAPVLVVYDDSDRPSGIPERFSGSNSGNTATLTISRVEAGDEADYYCQVWDGNSDHVVFGGGTKLTVLG
notes: IgG4 backbone
[1]
  Mean E max (%): 103%
  Mean EC50: 0.131 nM
Human beta-Klotho (KLB)
  koff: 4.4e-05 s⁻¹

B8: 16H7 variant, light chain N26W (antibody, IgG4, V domains shown)
VH: not shown
VL: SYVLTQPPSVSVAPGQTARITCGGNWIGSESVHWYQQKPGQAPVLVVYDDSDRPSGIPERFSGSNSGNTATLTISRVEAGDEADYYCQVWDGNSDHVVFGGGTKLTVLG
notes: IgG4 backbone; copies: 2 + 2
[1]
  Mean E max (%): 105%
  Mean EC50: 0.129 nM
Human beta-Klotho (KLB)
  koff: 6.7e-05 s⁻¹

B9: 16H7 variant, light chain N26H (antibody, human IgG4 S228P, lambda, V domains shown)
VH: not shown
VL: SYVLTQPPSVSVAPGQTARITCGGNHIGSESVHWYQQKPGQAPVLVVYDDSDRPSGIPERFSGSNSGNTATLTISRVEAGDEADYYCQVWDGNSDHVVFGGGTKLTVLG
notes: IgG4 backbone
[1]
  Mean E max (%): 112%
  Mean EC50: 0.138 nM
Human beta-Klotho (KLB)
  koff: 3.5e-05 s⁻¹

B10: 16H7 variant, light chain N26M (antibody, human IgG4 S228P, lambda, V domains shown)
VH: not shown
VL: SYVLTQPPSVSVAPGQTARITCGGNMIGSESVHWYQQKPGQAPVLVVYDDSDRPSGIPERFSGSNSGNTATLTISRVEAGDEADYYCQVWDGNSDHVVFGGGTKLTVLG
notes: IgG4 backbone
[1]
  Mean E max (%): 111%
  Mean EC50: 0.153 nM
Human beta-Klotho (KLB)
  koff: 2.2e-05 s⁻¹

B11: 16H7 variant, light chain N26R (antibody, human IgG4 S228P, lambda, V domains shown)
VH: not shown
VL: SYVLTQPPSVSVAPGQTARITCGGNRIGSESVHWYQQKPGQAPVLVVYDDSDRPSGIPERFSGSNSGNTATLTISRVEAGDEADYYCQVWDGNSDHVVFGGGTKLTVLG
notes: IgG4 backbone
[1]
  Mean E max (%): 110%
  Mean EC50: 0.205 nM
Human beta-Klotho (KLB)
  koff: 2.5e-05 s⁻¹

B12: 16H7 variant, light chain N26I (antibody, IgG4, V domains shown)
VH: not shown
VL: SYVLTQPPSVSVAPGQTARITCGGNIIGSESVHWYQQKPGQAPVLVVYDDSDRPSGIPERFSGSNSGNTATLTISRVEAGDEADYYCQVWDGNSDHVVFGGGTKLTVLG
notes: IgG4 backbone; copies: 2 + 2
[1]
  Mean E max (%): 110%
  Mean EC50: 0.113 nM
Human beta-Klotho (KLB)
  koff: 6.3e-05 s⁻¹
